Measurements reported in PMC9352680, “A comprehensive thermodynamic model for RNA binding by the Saccharomyces cerevisiae Pumilio protein PUF4”.
Where a chain is given by its changes, count along the chain named. Numbers in names are those of the source.

T1: PUF4 RNA-binding domain (Saccharomyces cerevisiae, UniProt P25339 537-888)
T1 sequence: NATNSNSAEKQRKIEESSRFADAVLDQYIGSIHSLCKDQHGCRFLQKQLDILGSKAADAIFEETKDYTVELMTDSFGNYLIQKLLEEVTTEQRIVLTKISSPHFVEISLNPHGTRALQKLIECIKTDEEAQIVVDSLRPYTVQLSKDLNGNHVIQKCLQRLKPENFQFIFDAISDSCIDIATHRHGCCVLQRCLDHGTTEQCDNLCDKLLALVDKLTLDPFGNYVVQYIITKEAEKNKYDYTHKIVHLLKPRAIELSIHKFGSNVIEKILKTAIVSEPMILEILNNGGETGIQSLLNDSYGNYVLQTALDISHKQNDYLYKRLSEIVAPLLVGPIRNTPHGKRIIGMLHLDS

B1: Id_ii_S4_P3E.2_K3.1_C3.2_[C-2G]_[T-1G]_H3.1_A3.1_F3.1_T3.2_[T9A]_[A10G] (ssRNA)
RNA: UUUGACAACUGAUCGUUCUUUCUGGUGUAUAUAAGUUCUUUCUCGAUCAGUUGUCUUU
B2: Id_ii_S4_P3E.2_K3.1_C3.2_[C-2T]_H3.1_A3.1_F3.1_T3.2_[T9C]_[A10T] (ssRNA)
RNA: B1 RNA with G24U, G25U, A34C, G35U
B3: Id_ii_S4_P3E.2_K3.1_C3.2_[C-2T]_[T-1C]_H3.1_A3.1_F3.1_T3.2_[A10T] (ssRNA)
RNA: B1 RNA with G24U, G25C, A34U, G35U
B4: Id_ii_S4_P3E.2_K3.1_C3.2_[C-2G]_[T-1G]_H3.1_A3.1_F3.1_T3.2_[A10T] (ssRNA)
RNA: B1 RNA with A34U, G35U
B5: Id_ii_S4_P3E.2_K3.1_C3.2_[C-2T]_[T-1A]_H3.1_A3.1_F3.1_T3.2_[A10T] (ssRNA)
RNA: B1 RNA with G24U, G25A, A34U, G35U
B6: Id_ii_S4_P3E.2_K3.1_C3.2_[C-2T]_H3.1_A3.1_F3.1_T3.2_[T9G]_[A10T] (ssRNA)
RNA: B1 RNA with G24U, G25U, A34G, G35U
B7: Id_ii_S4_P3E.2_K3.1_C3.2_[C-2G]_H3.1_A3.1_F3.1_T3.2_[T9A]_[A10T] (ssRNA)
RNA: B1 RNA with G25U, G35U
B8: Id_ii_S4_P3E.2_K3.1_C3.2_[C-2G]_[T-1C]_H3.1_A3.1_F3.1_T3.2_[T9C] (ssRNA)
RNA: B1 RNA with G25C, A34C, G35A
B9: Id_ii_S4_P3E.2_K3.1_C3.2_[C-2T]_[T-1A]_H3.1_A3.1_F3.1_T3.2_[T9A] (ssRNA)
RNA: B1 RNA with G24U, G25A, G35A
B10: Id_ii_S4_P3E.2_K3.1_C3.2_[C-2T]_[T-1C]_H3.1_A3.1_F3.1_T3.2_[T9C] (ssRNA)
RNA: B1 RNA with G24U, G25C, A34C, G35A
B11: Id_ii_S4_P3E.2_K3.1_C3.2_[C-2T]_H3.1_A3.1_F3.1_T3.2_[T9A]_[A10C] (ssRNA)
RNA: B1 RNA with G24U, G25U, G35C
B12: Id_ii_S4_P3E.2_K3.1_C3.2_[C-2T]_[T-1A]_H3.1_A3.1_F3.1_T3.2_[T9G]_[A10C] (ssRNA)
RNA: B1 RNA with G24U, G25A, A34G, G35C
B13: Id_ii_S4_P3E.2_K3.1_C3.2_[C-2T]_[T-1C]_H3.1_A3.1_F3.1_T3.2_[T9A]_[A10C] (ssRNA)
RNA: B1 RNA with G24U, G25C, G35C
B14: Id_ii_S4_P3E.2_K3.1_C3.2_[C-2G]_[T-1G]_H3.1_A3.1_F3.1_T3.2_[T9A]_[A10T] (ssRNA)
RNA: B1 RNA with G35U
B15: Id_ii_S4_P3E.2_K3.1_C3.2_[C-2G]_H3.1_A3.1_F3.1_T3.2_[T9C]_[A10C] (ssRNA)
RNA: B1 RNA with G25U, A34C, G35C
B16: Id_ii_S4_P3E.2_K3.1_C3.2_[C-2T]_[T-1A]_H3.1_A3.1_F3.1_T3.2_[T9C]_[A10C] (ssRNA)
RNA: B1 RNA with G24U, G25A, A34C, G35C
B17: Id_ii_S4_P3E.2_K3.1_C3.2_[C-2G]_[T-1C]_H3.1_A3.1_F3.1_T3.2_[T9C]_[A10C] (ssRNA)
RNA: B1 RNA with G25C, A34C, G35C
B18: Id_ii_S4_P3E.2_K3.1_C3.2_[C-2G]_H3.1_A3.1_F3.1_T3.2 (ssRNA)
RNA: B1 RNA with G25U, A34U, G35A
B19: Id_ii_S4_P3E.2_K3.1_C3.2_[C-2T]_[T-1A]_H3.1_A3.1_F3.1_T3.2_[T9C]_[A10T] (ssRNA)
RNA: B1 RNA with G24U, G25A, A34C, G35U
B20: Id_ii_S4_P3E.2_K3.1_C3.2_[C-2T]_[T-1A]_H3.1_A3.1_F3.1_T3.2_[T9A]_[A10C] (ssRNA)
RNA: B1 RNA with G24U, G25A, G35C
B21: Id_ii_S4_P3E.2_K3.1_C3.2_[C-2T]_H3.1_A3.1_F3.1_T3.2_[T9C]_[A10C] (ssRNA)
RNA: B1 RNA with G24U, G25U, A34C, G35C
B22: Id_ii_S4_P3E.2_K3.1_C3.2_[C-2T]_[T-1C]_H3.1_A3.1_F3.1_T3.2_[T9C]_[A10T] (ssRNA)
RNA: B1 RNA with G24U, G25C, A34C, G35U
B23: Id_ii_S4_P3E.2_K3.1_C3.2_[C-2T]_H3.1_A3.1_F3.1_T3.2_[T9A] (ssRNA)
RNA: B1 RNA with G24U, G25U, G35A
B24: Id_ii_S4_P3E.2_K3.1_C3.2_[C-2T]_[T-1C]_H3.1_A3.1_F3.1_T3.2_[T9A]_[A10T] (ssRNA)
RNA: B1 RNA with G24U, G25C, G35U
B25: Id_ii_S4_P3E.2_K3.1_C3.2_[C-2T]_[T-1G]_H3.1_A3.1_F3.1_T3.2_[T9A]_[A10T] (ssRNA)
RNA: B1 RNA with G24U, G35U
B26: Id_ii_S4_P3E.2_K3.1_C3.2_[C-2T]_[T-1C]_H3.1_A3.1_F3.1_T3.2_[T9G]_[A10T] (ssRNA)
RNA: B1 RNA with G24U, G25C, A34G, G35U

Biological target: T1, PUF4 RNA-binding domain
Test: Mg; RNA-MaP; 20 mM Na-HEPES pH 7.4, 30 mM KOAc, 0.75 mM MgCl2, 0.1% Tween-20, 5% glycerol, 0.1 mg/mL BSA, 2 mM DTT; 25 C; 0.0125-409.6 nM protein
Details: tags: N-His6-TEV cleaved; C-SNAP kept, Cy3B-labelled; label: tethered on chip by stalled RNA polymerase

Binder | Kd [nM]
UCUCUUUGCUUUAUUAUCUCUU (ssRNA) [Ib_S1_P5E.1_K5.1_C5.1_H5.1_[T3C]_[A4T]_A5.1_F5.1_T5.1] | > 2300
ACAAACCCACACUUAUUAAGACAAAC (ssRNA) [Id_ii_S3_P5E.4_K5.3_C5.2_[T-1C]_H5.3_A5.1_F5.1_T5.2_[T11A]_[A12G]] | > 2300
ACAAACCGACACUUAUUAUAACAAAC (ssRNA) [Id_ii_S3_P5E.4_K5.3_C5.2_[T-1G]_H5.3_A5.1_F5.1_T5.2] | > 2300
ACAAACCUACACUUAUUACUACAAAC (ssRNA) [Id_ii_S3_P5E.4_K5.3_C5.2_H5.3_A5.1_F5.1_T5.2_[T11C]_[A12T]] | > 2300
ACAAACCUACACUUAUUAUUACAAAC (ssRNA) [Id_ii_S3_P5E.4_K5.3_C5.2_H5.3_A5.1_F5.1_T5.2_[A12T]] | > 2300
UCUCUUUGCCUUAUUAUCUCUU (ssRNA) [Ib_S1_P5E.1_K5.1_C5.1_H5.1_[T3C]_[A4C]_A5.1_F5.1_T5.1] | > 2300
ACAAACCUACACUUAUUAUCACAAAC (ssRNA) [Id_ii_S3_P5E.4_K5.3_C5.2_H5.3_A5.1_F5.1_T5.2_[A12C]] | > 2300
ACAAACCCACACUUAUUAUGACAAAC (ssRNA) [Id_ii_S3_P5E.4_K5.3_C5.2_[T-1C]_H5.3_A5.1_F5.1_T5.2_[A12G]] | > 2300
B1 | 9.31
B2 | 2.81
B3 | 1.29
B4 | 3.9
B5 | 5.5
B6 | 2.14
B7 | 3.41
B8 | 46.9
B9 | 20.1
B10 | 9.13
B11 | 4.42
B12 | 6.05
B13 | 2.96
B14 | 5.5
B15 | 21.8

Binder | Kd [nM]
B16 | 6
B17 | 10.5
B18 | 2.31
B19 | 6.04
B20 | 15.9
B21 | 2.87
B22 | 2.78
B23 | 6.6
B24 | 1.51
B25 | 1.68
B26 | 3.63
ACAAACCCACACUUAUUACCACAAAC (ssRNA) [Id_ii_S3_P5E.4_K5.3_C5.2_[T-1C]_H5.3_A5.1_F5.1_T5.2_[T11C]_[A12C]] | > 2300
UCUCUUUGUAUGAUUAUCUCUU (ssRNA) [Ia_S1_P5E.1_K5.1_C5.1_H5.1_A5.1_[T6G]_F5.1_T5.1] | 23
ACAAACCUACACUUAUUAACACAAAC (ssRNA) [Id_ii_S3_P5E.4_K5.3_C5.2_H5.3_A5.1_F5.1_T5.2_[T11A]_[A12C]] | > 2300
ACAAACCCACACUUAUUAUAACAAAC (ssRNA) [Id_ii_S3_P5E.4_K5.3_C5.2_[T-1C]_H5.3_A5.1_F5.1_T5.2] | > 2300
ACAAACCUACACUUAUUAGCACAAAC (ssRNA) [Id_ii_S3_P5E.4_K5.3_C5.2_H5.3_A5.1_F5.1_T5.2_[T11G]_[A12C]] | > 2300
UCUCUUUAUCUUAUUAUCUCUU (ssRNA) [Ib_S1_P5E.1_K5.1_C5.1_H5.1_[G2A]_[A4C]_A5.1_F5.1_T5.1] | > 2300
ACAAACCUACACUUAUUAUGACAAAC (ssRNA) [Id_ii_S3_P5E.4_K5.3_C5.2_H5.3_A5.1_F5.1_T5.2_[A12G]] | > 2300
ACAAACCUACACUUAUUAAAACAAAC (ssRNA) [Id_ii_S3_P5E.4_K5.3_C5.2_H5.3_A5.1_F5.1_T5.2_[T11A]] | > 2300
ACAAACCAACACUUAUUACUACAAAC (ssRNA) [Id_ii_S3_P5E.4_K5.3_C5.2_[T-1A]_H5.3_A5.1_F5.1_T5.2_[T11C]_[A12T]] | > 2300
UCUCUUUGACUUAUUAUCUCUU (ssRNA) [Ib_S1_P5E.1_K5.1_C5.1_H5.1_[T3A]_[A4C]_A5.1_F5.1_T5.1] | > 2300
UCUCUUUAUUUUAUUAUCUCUU (ssRNA) [Ib_S1_P5E.1_K5.1_C5.1_H5.1_[G2A]_[A4T]_A5.1_F5.1_T5.1] | 1550
ACAAACCCACACUUAUUAUCACAAAC (ssRNA) [Id_ii_S3_P5E.4_K5.3_C5.2_[T-1C]_H5.3_A5.1_F5.1_T5.2_[A12C]] | > 2300
